Patent US20250152743A1, “SYNPOPTOSIS CIRCUITS FOR PROGRAMMABLE CELL DEATH CONTROL” (California Institute of Technology, priority 2023, published 2025)

Columns and labels:
[1] = tested on: HEK cells; test: Transient DNA transfection of HEK cells, Annexin/Sytox staining, flow cytometry; type: cell-based, human; details: for pyroptosis, Sytox staining: with TEVP / cognate protease
Protocol: HEK cells were transiently co-transfected with DNA encoding the circuits, often along with Cherry, a fluorescent protein marker, and cells were analyzed by flow cytometry 16 to 24 hours later. To quantify cell death, the cells were strained with Annexin, Sytox, or both. Annexin stains apoptotic cells by binding to phosphatidylserine exposed on the outer leaflet, and pyroptotic cells by binding to phosphatidylserine in the inner leaflet after membrane permeabilization. In contrast, Sytox, a membrane-impermeable dye, primarily stains pyroptotic cells. Therefore, apoptotic cells are typically Annexin-high and Sytox-low, while pyroptotic cells are Annexin-high and Sytox-high (FIG. 7B). For simplicity, in experiments involving only a single death mode, a single relevant dye was often used. To focus on cells influenced by the circuits, the fraction of Annexin- or Sytox-positive cells was calculated after gating on the fluorescent co-transfection marker (FIG. 7C).
On the day before transfection, HEK cells were seeded at a density of 0.3-0.6 million cells per well on a 12-well plate, 0.1-0.3 million cells per well on a 24-well plate, or 15,000-50,000 cells per well on a 96-well plate. The cells were allowed to attach to the plate overnight, for at least 8 hours. On the day of transfection, we treated the cells with purified DNA plasmids encoding circuit components. In addition to plasmids encoding circuit components, we often included a plasmid encoding a fluorescent co-transfection marker, at roughly 50 ng DNA per well on a 24-well plate. Given the different number of molecular components in each synthetic circuit and their various relative ratios, the total amount of DNA ranged from 50 to 1 μg per well on a 24-well plate, and was scaled by […] when other 12-well or 96-well plates were used, respectively. On the same plate, we often equalized the total amount of DNA across all transfected wells, using a filler plasmid encoding the neomycin resistance gene. To transfect cells with plasmid DNA, we used three types of transfection reagents—Lipofectamine 2000 (Thermo Fisher), Lipofectamine 3000 (Thermo Fisher), and FuGENE HD (Promega), according to manufacturers' instructions. Briefly, for a typical transfection experiment on a 24-well plate, we mixed plasmids and the transfection reagent, around 200 ng of DNA per 1 μl of Lipofectamine 2000, in 25 μl of Opti-MEM reduced serum medium (Thermo Fisher), incubated the mixture for 5-10 min at room temperature, and then added another 25 μl of Opti-MEM before transferring the mixture dropwise to culture wells. We also performed some transfection experiments using the Lipofectamine 3000 kit (Thermo Fisher), at a ratio of 2,000 ng of DNA, 2 ul of 4 ul of P3000, and 3 μl of Lipofectamine 3000. We similarly diluted the mixture in Opti-MEM before adding it to cells. For transfection with FuGENE, we used a ratio of 4 μl FuGENE:1 μg of DNA, and incubated the DNA-FuGENE mixture at room temperature for 5 min before transfection. To enable protein expression from plasmids with a doxycycline-inducible promoter, doxycycline was added to the cell culture at a final concentration of 100 ng/mL. In experiments involving Q-VD-OPh, the compound was added to the cell culture at a final concentration of 30 μM, immediately after the cells received the transfection mixture. To transfect cells with in vitro transcribed mRNA, Lipofectamine MessengerMax (Thermo Fisher) was used. Briefly, for transfection of one well in a 96-well plate, 0.1 μL of Lipofectamine MessengerMAX was diluted in 1.25 μL Opti-MEM and incubated for 10 minutes at room temperature. mRNA was then added to Opti-MEM to the appropriate conditions at the following amounts: 12.5 ng of fluorescent co-transfection marker, 56.25 ng of protease, and 56.25 ng of engineered executioner. Diluted mRNA was then added to diluted MessengerMAX reagent and incubated for 5 minutes at room temperature before addition to Jurkat or THP-1 cells in RPMI media. […]

[2] = Engineered Casp3 variants without input protease and with Ras sensor protease; details: without an input protease
Protocol: In this experiment, we tested the wild-type TEVP activatable Casp3 protein against the engineered Casp3 variants (v2.1 and v2.2) as described above. Each Casp3 variant was tested without an input protease and with a Ras sensor protease.

Row | Molecule | pyroptosis, Sytox staining [1] | background (TEVP-independent) cell death / Casp3 activation [2] | also measured
1 | FIG. 1D, fifth module: GSDMA N-terminal domain fused to TEVP site-caged N-degron; SEQ ID NOs: 20, 40 (protein) MGSENLYFQRHKSGAWKLPVSLVKPVFEDVTRALVRELNPRGDLTPLDSLIDFKHFRPFCLVLRKRKSTLFWGARYVRTDYTLLDLLEPGSSPSDLTDSGNFSFKNMLDVQVQGLVEVPKTVKVKGTAGLSQSSTLEVQTLSVAPSALENLKKERKLSADHSFLNEMRYHEKNLYVVMEAVEAKQEVTVEQTGNANAIFSLPSLALLGLQGSLNNNKAVTIPKGCVLAYRVRLLRVFLFNLWDIPYICNDSMQTFPKIRRVPCSAFISPTQMISEEPEEEKLIGEMGSENLYFQRHKSGAWKLPVSLVKPVFEDVTRALVRELNPRGDLTPLDSLIDFKHFRPFCLVLRKRKSTLFWGARYVRTDYTLLDLLEPGSSPSDLTDSGNFSFKNMLDVQVQGLVEVPKTVKVKGTAGLSQSSTLEVQTLSVAPSALENLKKERKLSADHSFLNEMRYHEKNLYVVMEAVEAKQEVTVEQTGNANAIFSLPSLALLGLQGSLNNNKAVTIPKGCVLAYRVRLLRVFLFNLWDIPYICNDSMQTFPKIRRVPCSAFISPTQMISEEPEEEKLIGE | allowed protease-mediated suppression of pyroptosis |  | 
2 | Caspase3_v2.2: nCasp3-tevs-nHalo-tevs-cHalo-tevs-cCasp3-CAAX; SEQ ID NO: 45 (protein) MENTENSVDSKSIKNLEPKIIHGSESMDSGISLDNSYKMDYPEMGLCIIINNKNFHKSTGMTSRSGTDVDAANLRETFRNLKYEVRNKNDLTREEIVELMRDVSKEDHSKRSSFVCVLLSHGEEGIIFGTNGPVDLKKITNFFRGDRCRSLTGKPKLFIIQACRGTELDCGIETENLYFQSEIGTGFPFDPHYVEVLGERMHYVDVGPRDGTPVLFLHGNPTSSYVWRNIIPHVAPENLYFQSTHRCIAPDLIGMGKSDKPDLGYFFDDHVRFMDAFIEALGLEEVVLVIHDWGSALGFHWAKRNPERVKGIAFMEFIRPIPTWDEWPEFARETFQAFRTTDVGRKLIIDQNVFIEGTLPMGVVRPLTEVEMDHYREPFLNPVDREPLWRFPNELPIAGEPANIVALVEEYMDWLHQSPVPKLLFWGTPGVLIPPAEAARLAKSLPNCKAVDIGPGLNLLQEDNPDLIGSEIARWLSTLEISENLYFQSGVDDDMACHKIPVEADFLYAYSTAPGYYSWRNSKDGSWFIQSLCAMLKQYADKLEFMHILTRVNRKVATEFESFSFDATFHAKKQIPCIVSMLTKELYFYHSTGGSSGGGGRSKLNPPDESGPGCMSCKCVLS |  | background Casp3 activation is reduced | background (TEVP-independent) cell death / Casp3 activation ([2]; listed as v2.2): reduced to statistically non-significant amounts
3 | FIG. 1D, fourth module: GSDMA N-terminal domain with internal TEVP cleavage site; SEQ ID NO: 19 (protein) MGSPVFEDVTRALVRELNPRGDLTPLDSLIDFKHFRPFCLVLRKRKSTLFWGARYVRTDYTLLDLLEPGSSPSDLTDSGNFSFKENLYFQSNMLDVQVQGLVEVPKTVKVKGTAGLSQSSTLEVQTLSVAPSALENLKKERKLSADHSFLNEMRYHEKNLYVVMEAVEAKQEVTVEQTGNANAIFSLPSLALLGLQGSLNNNKAVTIPKGCVLAYRVRLLRVFLFNLWDIPYICNDSMQTFPKIRRVPCSAFISPTQMISEEPEEEKLIGE | abolished its activity |  | 
4 | Caspase3_v2.1: nHalo-tevs-Casp3te-tevs-cHalo-CAAX; SEQ ID NO: 44 (protein) MEIGTGFPFDPHYVEVLGERMHYVDVGPRDGTPVLFLHGNPTSSYVWRNIIPHVAPGSENLYFQSGSENTENSVDSKSIKNLEPKIIHGSESMDSGISLDNSYKMDYPEMGLCIIINNKNFHKSTGMTSRSGTDVDAANLRETFRNLKYEVRNKNDLTREEIVELMRDVSKEDHSKRSSFVCVLLSHGEEGIIFGTNGPVDLKKITNFFRGDRCRSLTGKPKLFIIQACRGTELDCGIETENLYFQSGVDDDMACHKIPVEADFLYAYSTAPGYYSWRNSKDGSWFIQSLCAMLKQYADKLEFMHILTRVNRKVATEFESFSFDATFHAKKQIPCIVSMLTKELYFYHSTGSENLYFQSGSTHRCIAPDLIGMGKSDKPDLGYFFDDHVRFMDAFIEALGLEEVVLVIHDWGSALGFHWAKRNPERVKGIAFMEFIRPIPTWDEWPEFARETFQAFRTTDVGRKLIIDQNVFIEGTLPMGVVRPLTEVEMDHYREPFLNPVDREPLWRFPNELPIAGEPANIVALVEEYMDWLHQSPVPKLLFWGTPGVLIPPAEAARLAKSLPNCKAVDIGPGLNLLQEDNPDLIGSEIARWLSTLEISGGSSGGGGRSKLNPPDESGPGCMSCKCVLS |  | making TEVP-independent Casp3 activation less likely | background (TEVP-independent) cell death / Casp3 activation ([2]; listed as v2.1): reduced to statistically non-significant amounts
5 | wildtype GSDME: natural substrate for caspase-3; SEQ ID NO: 21 (protein) MGFAKATRNFLREVDADGDLIAVSNLNDSDKLQLLSLVTKKKRFWCWQRPKYQFLSLTLGDVLIEDQFPSPVVVESDFVKYEGKFANHVSGTLETALGKVKLNLGGSSRVESQSSFGTLRKQEVDLQQLIRDSAERTINLRNPVLQQVLEGRNEVLCVLTQKITTMQKCVISEHMQVEEKCGGIVGIQTKTVQVSATEDGNVTKDSNVVLEIPAATTIAYGVIELYVKLDGQFEFCLLRGKQGGFENKKRIDSVYLDPLVFREFAFIDMPDAAHGISSQDGPLSVLKQATLLLERNFHPFAELPEPQQTALSDIFQAVLFDDELLMVLEPVCDDLVSGLSPTVAVLGELKPRQQQDLVAFLQLVGCSLQGGCPGPEDAGSKQLFMTAYFLVSALAEMPDSAAALLGTCCKLQIIPTLCHLLRALSDDGVSDLEDPTLTPLKDTERFGIVQRLFASADISLERLKSSVKAVILKDSKVFPLLLCITLNGLCALGREHS |  |  | mode of cell death, Sytox and Annexin double staining ([1]; background of TEVP activating TEVP-activatable caspase-3): caused pyroptosis in response to TEVP-mediated caspase-3 activation; cell death by the protein alone ([1]; without caspase-3 activation): alone did not induce cell death
